From US7772181B2, “Personal care compositions comprising modified variant Bowman Birk Protease Inhibitors” (Danisco US Inc., priority 2008, dated 2010)
Changes are numbered by the printed parent chain. Names may count otherwise. Marks after values point to notes of the source that are not given here.

T1: bovine pancreatic trypsin (Bos taurus, UniProt P00760)
T1 construct: purchased Worthington (Worthington Biochemical Corp.)
T1 sequence (P00760 24-246): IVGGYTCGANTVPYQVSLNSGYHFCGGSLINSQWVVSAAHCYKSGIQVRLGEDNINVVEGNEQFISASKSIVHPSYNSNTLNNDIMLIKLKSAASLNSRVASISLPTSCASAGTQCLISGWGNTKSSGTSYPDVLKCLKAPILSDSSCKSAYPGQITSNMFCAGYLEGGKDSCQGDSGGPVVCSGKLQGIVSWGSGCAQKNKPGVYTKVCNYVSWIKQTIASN

B1: BBIt-AV-F50T: BBIt-AV (SEQ ID NO:187) with single substitution F50T (protein)
chain: DDESSKPCCDQCACTKSNPPQCRCSDMRLNSCHSACKSCACYNLYGWTCTCVDITDFCYEPCKPSE
modifications: synthetic BBIt-AV sequence
B2: K37E: BBIt-AV (SEQ ID NO:187) with single substitution K37E (protein)
chain: B1 chain with K37E, T50F
modifications: synthetic BBIt-AV sequence
B3: A35D: BBIt-AV (SEQ ID NO:187) with single substitution A35D (protein)
chain: B1 chain with A35D, T50F
modifications: synthetic BBIt-AV sequence
B4: S25T: BBIt-AV (SEQ ID NO:187) with single substitution S25T (protein)
chain: B1 chain with S25T, T50F
modifications: synthetic BBIt-AV sequence
B5: M27I: BBIt-AV (SEQ ID NO:187) with single substitution M27I (protein)
chain: B1 chain with M27I, T50F
modifications: synthetic BBIt-AV sequence
B6: F50R: BBIt-AV (SEQ ID NO:187) with single substitution F50R (protein)
chain: B1 chain with T50R
modifications: synthetic BBIt-AV sequence
B7: V52F: BBIt-AV (SEQ ID NO:187) with single substitution V52F (protein)
chain: B1 chain with T50F, V52F
modifications: synthetic BBIt-AV sequence
B8: N18I: BBIt-AV (SEQ ID NO:187) with single substitution N18I (protein)
chain: B1 chain with N18I, T50F
modifications: synthetic BBIt-AV sequence
B9: K37S: BBIt-AV (SEQ ID NO:187) with single substitution K37S (protein)
chain: B1 chain with K37S, T50F
modifications: synthetic BBIt-AV sequence
B10: A13M: BBIt-AV (SEQ ID NO:187) with single substitution A13M (protein)
chain: B1 chain with A13M, T50F
modifications: synthetic BBIt-AV sequence
B11: Q11L: BBIt-AV (SEQ ID NO:187) with single substitution Q11L (protein)
chain: B1 chain with Q11L, T50F
modifications: synthetic BBIt-AV sequence
B12: S25A: BBIt-AV (SEQ ID NO:187) with single substitution S25A (protein)
chain: B1 chain with S25A, T50F
modifications: synthetic BBIt-AV sequence
B13: R23S: BBIt-AV (SEQ ID NO:187) with single substitution R23S (protein)
chain: B1 chain with R23S, T50F
modifications: synthetic BBIt-AV sequence
B14: Q11R: BBIt-AV (SEQ ID NO:187) with single substitution Q11R (protein)
chain: B1 chain with Q11R, T50F
modifications: synthetic BBIt-AV sequence
B15: N18M: BBIt-AV (SEQ ID NO:187) with single substitution N18M (protein)
chain: B1 chain with N18M, T50F
modifications: synthetic BBIt-AV sequence
B16: S25E: BBIt-AV (SEQ ID NO:187) with single substitution S25E (protein)
chain: B1 chain with S25E, T50F
modifications: synthetic BBIt-AV sequence
B17: R23H: BBIt-AV (SEQ ID NO:187) with single substitution R23H (protein)
chain: B1 chain with R23H, T50F
modifications: synthetic BBIt-AV sequence
B18: M27V: BBIt-AV (SEQ ID NO:187) with single substitution M27V (protein)
chain: B1 chain with M27V, T50F
modifications: synthetic BBIt-AV sequence
B19: F50V: BBIt-AV (SEQ ID NO:187) with single substitution F50V (protein)
chain: B1 chain with T50V
modifications: synthetic BBIt-AV sequence

Target: T1, bovine pancreatic trypsin
Assay: BBIt-AV:BCE activity ratio, microtiter plate screens (primary, quadruplicate secondary)
Format: biochemical
Conditions: for BBIt-AV:BCE activity ratio relative to unmodified BBIt-AV: after activation with reducing agent (2-mercaptoethanol); for relative activity of the amino acid substitution (BBI:BCE activity ratio vs BBIt-AV), amino acid present in BBItc-AV / relative activity of the amino acid substitution (BBI:BCE activity ratio vs BBIt-AV), amino acid present in BBIsb3-AV / relative activity of the amino acid substitution (BBI:BCE activity ratio vs BBIt-AV), amino acid present in BBIdb-AV: single substitution in BBIt-AV, in the presence of reducing agent
Experimental: The cultures in each master plate were thawed and a pin replicator was used to inoculate a new sterile microtiter plate containing 150 μl of Luria broth with 5 μg/ml chloramphenicol in each well. The plates were grown for ˜10 hrs in a humidified and aerated box as described above. For controls, the cultures in two wells were replaced with BBI and BBI-AV cultures that had been grown concurrently in 15 ml culture tubes (5 ml of Luria broth with 5 μg/ml chloramphenicol). After the cultures were grown, the plate was used to inoculate two duplicate 96-well filter plates (Millipore, MSGV2210) containing 150 μl of MBD medium (Vogtentanz et al., 2007) with 5 μg/ml chloramphenicol in each well by using a pin replicator. The duplicate plates were grown for ˜14 hours (as above, with plastic spacers placed between the stacked plates to allow for efficient air flow around the plates) and then 2-mecaptoethanol was added to each well in one of the plates to a final concentration of 2 mM. The plates were then grown for an additional ˜46 hours. The 96-well filter plates containing the culture broth (with or without added 2-mecaptoethanol) were then assayed for BBI and BCE activity.
Libraries were analyzed using dilutions of cultures grown in 96-well plates. Typically, the culture broth from each well was diluted (200 fold) in Assay Buffer (100 mM Tris pH 8.6, 0.005% Tween 80) and transferred to a second microtiter plate (CoStar 9017, Corning, Inc., Corning, N.Y.). Then, 20 μl of the diluted samples were transferred to a third microtiter plate. A standard curve was created by adding 20, 10, 5 or 2.5 μl of the diluted sBBI (SEQ ID NO:13) control culture to empty wells. Then, 80 μL of 50 ng/ml trypsin (bovine pancreatic trypsin, Worthington Biochemical Corp., Lakewood, N.J.) (prepared from a 1 mg/mL stock solution diluted into Assay Buffer) was added to each well of the plate. The reactions were mixed and incubated 15 min at room temperature. After the incubation, 100 μL of 0.5 mg/ml trypsin substrate (succinyl-Ala-Ala-Pro-Arg-para-nitroanilide, Bachem Bioscience, Inc., King of Prussia, Pa.), diluted in Assay Buffer from a 100 mg/ml solution in DMSO, was added to each well, mixed, and the absorbance at 405 nm was monitored for 15 min, with 1 time point recorded every 12 sec using a Spectra Max 250 (Molecular Devices). The data points were used to determine the rate for each reaction. The standard curve was generated by plotting the reaction rate versus the BBI volume and was fitted to a four-parameter equation. All data fitting was done using software supplied by the manufacturer (Molecular Devices Corp., Sunnyvale, Calif.). The activity of each BBIt-AV variant was calculated from the standard curve. Thus, the activities of all modified variant proteins were determined relative to the activity in the sBBI control (BBI-WT) culture.
The concentration of BCE was determined by an activity assay using purified BCE as a standard as described above and by (Vogtentanz et al. 2007). For the analysis of libraries grown in 96-well microtiter plates, 20 μl of culture broth were transferred to each well of a new microtiter plate. A standard curve was created by adding 20, 10, 5 or 2.5 μl of the diluted BBI-WT control culture to these empty wells. Then, 180 μl of the BCE substrate (0.25 μg/ml in Assay Buffer), 4-nitrophenyl β-D-cellobioside (Sigma, St. Louis, Mo.), was added to the plate. The plate was mixed and the absorbance at 405 nm monitored for 15 min, with 1 time point recorded every 12 s using a Spectra Max 250 (Molecular Devices Corp., Sunnyvale, Calif.). The data points were used to determine the rate for each reaction. The standard curve was generated by plotting rate versus culture volume and was fit to a quadratic curve. The BCE concentration in each variant culture was determined relative to the standard control culture. […]

| Molecule | relative activity of the amino acid substitution (BBI:BCE activity ratio vs BBIt-AV), amino acid present in BBItc-AV | relative activity of the amino acid substitution (BBI:BCE activity ratio vs BBIt-AV), amino acid present in BBIsb3-AV | also measured |
| --- | --- | --- | --- |
| B1 | – | – | BBIt-AV:BCE activity ratio relative to unmodified BBIt-AV: three-fold greater; initial BBIt-AV:BCE activity ratio relative to unmodified BBIt-AV (prior to activation): comparable to that of the unmodified BBIt-AV parent |
| B2 | E (+/−) | – | – |
| B3 | – | D (+/−) | – |
| B4 | – | – | relative activity of the amino acid substitution (BBI:BCE activity ratio vs BBIt-AV), amino acid present in BBIdb-AV: T (+/−) |
| B5 | I (+/−) | I (+/−) | – |
| B6 | R (++) (the greater the number of “+”, the greater the difference.) | R (++) (the greater the number of “+”, the greater the difference.) | BBIt-AV:BCE activity ratio relative to unmodified BBIt-AV: best BBIt-AV:BCE-activity ratio |
| B7 | F (+/−) | – | – |
| B8 | I (+++) (the greater the number of “+”, the greater the difference.) | – | relative activity of the amino acid substitution (BBI:BCE activity ratio vs BBIt-AV), amino acid present in BBIdb-AV: I (+++) (the greater the number of “+”, the greater the difference.) |
| B9 | – | – | relative activity of the amino acid substitution (BBI:BCE activity ratio vs BBIt-AV), amino acid present in BBIdb-AV: S (+/−) |
| B10 | – | M (+)*** | – |
| B11 | – | L (+/−)** | – |
| B12 | A (+) | – | – |
| B13 | – | S (−−−) (the greater the number of “−”, the greater the difference.) | – |
| B14 | R (+/−) | – | – |
| B15 | – | M (+/−) | – |
| B16 | – | E (−−−) (the greater the number of “−”, the greater the difference.) | – |
| B17 | H (−) | – | – |
| B18 | – | – | relative activity of the amino acid substitution (BBI:BCE activity ratio vs BBIt-AV), amino acid present in BBIdb-AV: V (+/−) |
| B19 | – | – | relative activity of the amino acid substitution (BBI:BCE activity ratio vs BBIt-AV), amino acid present in BBIdb-AV: V (+) |
